In patent US20240034774A1 (Gilead, published 2024):
Numbering of substitutions follows the chain as printed.

B1: 1.3.1-1 (antibody, human IgG1, kappa)
heavy: QVSLLQSGAAVTKPGASVRVSCEASGYNIRDYFIHWWRQAPGQGLQWVGWINPKTGQPNNPRQFQGRVSLTRHASWDFDTFSFYMDLKALRSDDTAVYFCARQRSDYWDFDVWGSGTQVTVSSASTKGPSVFPLAPSSKSTSGGTAALGCLVKDYFPEPVTVSWNSGALTSGVHTFPAVLQSSGLYSLSSVVTVPSSSLGTQTYICNVNHKPSNTKVDKKVEPKSCDKTHTCPPCPAPELLAGPDVFLFPPKPKDTLMISRTPEVTCVVVDVSHEDPEVKFNWYVDGVEVHNAKTKPREEQYNSTYRVVSVLTVLHQDWLNGKEYKCKVSNKALPLPEEKTISKAKGQPREPQVYTLPPSREEMTKNQVSLTCLVKGFYPSDIAVEWESNGQPENNYKTTPPVLDSDGSFFLYSKLTVDKSRWQQGNVFSCSVLHEALHSHYTQKSLSLSPGK
light: DIQMTQSPSSLSASVGDTVTITCQANGYLNWYQQRRGKAPKLLIYDGSKLERGVPSRFSGRRWGQEYNLTINNLQPEDIATYFCQVYEFVVPGTRLDLKRTVAAPSVFIFPPSDEQLKSGTASVVCLLNNFYPREAKVQWKVDNALQSGNSQESVTEQDSKDSTYSLSSTLTLSKADYEKHKVYACEVTHQGLSSPVTKSFNRGEC
B2: 1.19.1-1 (antibody, human IgG1, kappa)
heavy: B1 heavy with S3Q, S69T
light: B1 light
B3: 1.4.1-1 (antibody, human IgG1, kappa)
heavy: B1 heavy with S3Q, L5V
light: B1 light
B4: 1.11.1-1 (antibody, human IgG1, kappa)
heavy: B1 heavy with S3Q, I34M, F83A
light: B1 light
B5: 1.5.1-1 (antibody, human IgG1, kappa)
heavy: B1 heavy with S3Q, L5V, E23K
light: B1 light
B6: 1.7.1-1 (antibody, human IgG1, kappa)
heavy: B1 heavy with S3Q, A10E, T12K
light: B1 light
B7: 1.12.15-1 (antibody, human IgG1, kappa)
heavy: B1 heavy with S3Q, W37V
light: B1 light with V90F
B8: 1.10.1-1 (antibody, human IgG1, kappa)
heavy: B1 heavy with S3Q, I34M
light: B1 light
B9: 1.13.17-1 (antibody, human IgG1, kappa, V domains shown)
VH: QVQLLQSGAAVTKPGASVRVSCEASGYNIRDYFMHWVRQAPGQGLQWVGWINPKTGQPNNPRQFQGRVSLTRHASWDFDTFSFYMDLKALRSDDTAVYFCARQRSDYWDFDVWGSGTQVTVSS
VL: DIQMTQSPSSLSASVGDTVTITCQANGYLNWYQQRRGKAPKLLIYDGSKLERGVPSRFSGRRWGQEYNLTINNLQPEDIATYFCQVYEFFGPGTRLDLKR
B10: 1.18.1-1 (antibody, human IgG1, kappa)
heavy: B1 heavy with S3Q, T55H
light: B1 light
B11: 1.9.1-1 (antibody, human IgG1, kappa)
heavy: B1 heavy with S3Q, L5V, A10E, T12K, E23K
light: B1 light
B12: 1.6.1-1 (antibody, human IgG1, kappa)
heavy: B1 heavy with S3Q, A10E
light: B1 light
B13: 1.13.15-1 (antibody, human IgG1, kappa)
heavy: B1 heavy with S3Q, I34M, W37V
light: B1 light with V90F
B14: 1.12.17-1 (antibody, human IgG1, kappa, V domains shown)
VH: B9 VH with M34I
VL: B9 VL
B15: 1.15.1-1 (antibody, human IgG1, kappa)
heavy: B1 heavy with S3Q, T55W
light: B1 light
B16: 1.16.1-1 (antibody, human IgG1, kappa)
heavy: B1 heavy with S3Q, T55G
light: B1 light
B17: 1.8.1-1 (antibody, human IgG1, kappa)
heavy: B1 heavy with S3Q, L5V, A10E
light: B1 light
B18: 1.14.17-1 (antibody, human IgG1, kappa, V domains shown)
VH: B9 VH with F83A
VL: B9 VL
B19: 1.17.1-1 (antibody, human IgG1, kappa)
heavy: B1 heavy with S3Q, T55A
light: B1 light

Each binder was assayed against gp120 CAAN (HIV (CAAN)) (assay: single-point ELISA at EC50 conc. of A-1).

| Binder | ELISA A450 [A450] |
| --- | --- |
| B1 | 0.94 |
| B2 | 0.93 |
| B3 | 0.96 |
| B4 | 0.75 |
| B5 | 1.07 |
| B6 | 1.04 |
| B7 | 0.63 |
| B8 | 0.94 |
| B9 | 0.78 |
| B10 | 1.18 |
| B11 | 0.98 |
| B12 | 0.9 |
| B13 | 0.6 |
| B14 | 0.84 |
| B15 | 1.38 |
| B16 | 0.87 |
| B17 | 0.9 |
| B18 | 0.43 |
| B19 | 0.7 |

What follows are binders tested against gp120 SHIV SF162 P3 (SHIV SF162 P3) (assay: single-point ELISA at EC50 conc. of A-1).

| Binder | ELISA A450 [A450] |
| --- | --- |
| B1 | 1.13 |
| B2 | 0.96 |
| B3 | 1.19 |
| B4 | 0.57 |
| B5 | 1.15 |
| B6 | 1.08 |
| B7 | 0.53 |
| B8 | 1.03 |
| B9 | 0.69 |
| B10 | 1.36 |
| B11 | 1.23 |
| B12 | 1.1 |
| B13 | 0.52 |
| B14 | 0.75 |
| B15 | 1.24 |
| B16 | 0.9 |
| B17 | 0.94 |
| B18 | 0.24 |
| B19 | 0.31 |

Each binder was assayed against gp120 Bal (HIV (Bal)) (assay: single-point ELISA at EC50 conc. of A-1).

| Binder | ELISA A450 [A450] |
| --- | --- |
| B1 | 0.97 |
| B2 | 0.85 |
| B3 | 1.04 |
| B4 | 0.93 |
| B5 | 0.92 |
| B6 | 0.98 |
| B7 | 0.69 |
| B8 | 0.95 |
| B9 | 1.02 |
| B10 | 0.97 |
| B11 | 1.08 |
| B12 | 0.95 |
| B13 | 0.7 |
| B14 | 0.9 |
| B15 | 0.87 |
| B16 | 0.92 |
| B17 | 0.86 |
| B18 | 0.89 |
| B19 | 0.84 |

What follows are binders tested against BSA (UniProt P02769 25-607) (assay: single-point ELISA, BSA control).

| Binder | ELISA A450 [A450] |
| --- | --- |
| B1 | 0.06 |
| B2 | 0.06 |
| B3 | 0.06 |
| B4 | 0.09 |
| B5 | 0.06 |
| B6 | 0.06 |
| B7 | 0.06 |
| B8 | 0.06 |
| B9 | 0.06 |
| B10 | 0.07 |
| B11 | 0.06 |
| B12 | 0.06 |
| B13 | 0.06 |
| B14 | 0.06 |
| B15 | 0.06 |
| B16 | 0.07 |
| B17 | 0.06 |
| B18 | 0.1 |
| B19 | 0.06 |
